Experiments:
AUC = target: the molecule itself; experiment: AUC
crystal structure = target: the molecule itself; experiment: crystal structure

B1: PYCR1 T171M variant (human Δ1-pyrroline-5-carboxylate reductase 1, Thr171Met) (enzyme, UniProt P32322 1-300, looked up)
chain: MSVGFIGAGQLAFALAKGFTAAGVLAAHKIMASSPDMDLATVSALRKMGVKLTPHNKETVQHSDVLFLAVKPHIIPFILDEIGADIEDRHIVVSCAAGVTISSIEKKLSAFRPAPRVIRCMTNTPVVVREGATVYATGTHAQVEDGRLMEQLLSSVGFCTEVEEDLIDAVMGLSGSGPAYAFTALDALADGGVKMGLPRRLAVRLGAQALLGAAKMLLHSEQHPGQLKDNVSSPGGATIHALHVLESGGFRSLLINAVEASCIRTRELQSMADQEQVSPAAIKKTILDKVKLDSPAGTAL
How did the “stoichiometry N” value (AUC) turn out when B1 was run?
Its value is 2.

And the “stoichiometry N” value (crystal structure)?
The value was 10.
